Results as given in article PMC9335916 (ACS Central Science, 2022).

Molecular target: trypsin from porcine pancreas (porcine, UniProt P00761 9-231)
Assay: native MS

trypsin from porcine pancreas, sequence (P00761 9-231): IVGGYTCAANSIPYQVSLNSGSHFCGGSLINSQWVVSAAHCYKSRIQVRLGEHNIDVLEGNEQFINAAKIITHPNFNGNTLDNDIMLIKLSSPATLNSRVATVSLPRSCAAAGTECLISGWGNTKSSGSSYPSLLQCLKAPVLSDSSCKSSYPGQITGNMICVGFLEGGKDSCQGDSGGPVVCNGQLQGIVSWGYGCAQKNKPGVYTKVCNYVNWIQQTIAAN

B1: Soybean trypsin inhibitor (natural protein)
chain: DFVLDNEGNPLENGGTYYILSDITAFGGIRAAPTGNERCPLTVVQSRNELDKGIGTIISSPYRIRFIAEGHPLSLKFDSFAVIMLCVGIPTEWSVVEDLPEGPAVKIGENKDAMDGWFRLERVSDDEFNNYKLVFCPQQAEDDKCGDIGISIDHDDGTRRLVVSKNKPLVVQFQKLDKESL
apparent Kd (without RF correction): 27.1 ± 8.4 µM
